Positions count from the first letter of the chain named.
T1: human RANKL protein (Sino Biological, 11682-HNCH) (human, UniProt O14788 136-317, limits assumed)
T1 construct: Bought protein
T1 sequence (looked up): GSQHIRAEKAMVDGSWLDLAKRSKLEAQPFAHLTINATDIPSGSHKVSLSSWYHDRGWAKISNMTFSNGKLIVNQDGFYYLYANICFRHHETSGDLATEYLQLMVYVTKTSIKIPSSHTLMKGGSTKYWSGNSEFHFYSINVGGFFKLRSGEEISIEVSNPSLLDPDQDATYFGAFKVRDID

T2: murine RANKL (R&D Systems, 462-TR/CF) (murine, UniProt O35235 72-316, limits assumed)
T2 construct: Bought protein
T2 sequence (looked up): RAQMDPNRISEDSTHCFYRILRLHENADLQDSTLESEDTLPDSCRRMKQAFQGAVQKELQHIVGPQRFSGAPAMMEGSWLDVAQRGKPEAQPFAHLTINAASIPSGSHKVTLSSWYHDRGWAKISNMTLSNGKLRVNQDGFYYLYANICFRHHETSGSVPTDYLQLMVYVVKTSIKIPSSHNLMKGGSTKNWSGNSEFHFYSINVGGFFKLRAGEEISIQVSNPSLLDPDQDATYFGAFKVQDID

B1: Tanezumab (antibody, human IgG2, kappa, V domains shown)
VH: QVQLQESGPGLVKPSETLSLTCTVSGFSLIGYDLNWIRQPPGKGLEWIGIIWGDGTTDYNSAVKSRVTISKDTSKNQFSLKLSSVTAADTAVYYCARGGYWYATSYYFDYWGQGTLVTVSS
VL: DIQMTQSPSSLSASVGDRVTITCRASQSISNNLNWYQQKPGKAPKLLIYYTSRFHSGVPSRFSGSGSGTDFTFTISSLQPEDIATYYCQQEHTLPYTFGQGTKLEIKR
notes: Control antibody; also called control anti-NGF antibody
B2: 2-79L (antibody, V domains shown)
VH: EVQLLESGGGLVQPGGSLRLSCAASGFTFSSYAMSWVRQAPGKGLEWVSGITGSGGSTYYADSVKGRFTISRDNSKNTLYLQMNSLRAEDTAVYYCAKDPGTTVIMSWFDPWGQGTLVTVSS
VL: EIVLTQSPGTLSLSPGERATLSCRASQSVRGRYLAWYQQKPGQAPRLLIYGSSSRATGIPDRFSGSGSGTDFTLTISRLEPEDFAVFYCQQYGSSPRTFGQGTKVEIK
notes: Variable regions fused to human constant regions
B3: 5-58H (antibody, V domains shown)
VH: B2 VH with A97V, K98Q, T102F, V104Y
VL: B2 VL with S52A
notes: as for B2
B4: 2-87L (antibody, IgG4, V domains shown)
VH: B2 VH
VL: B2 VL with S28Y, V29L, R30P, G31F, R32H, Y33R, G51D, S52T
notes: as for B2
B5: 1-22H (antibody, V domains shown)
VH: B2 VH with S30A, S31D, T52S, G53A, G56S
VL: B2 VL with S52A
notes: Variable regions were fused to human heavy and light chain constant regions to form complete chains
B6: 5-51H (antibody, V domains shown)
VH: B2 VH with G101C, T102F, T103S, V104Y
VL: B2 VL with S52A
notes: as for B2
B7: 4-64L (antibody, V domains shown)
VH: B2 VH
VL: B2 VL with S52A, T98I
notes: as for B2
B8: 2-72L (antibody, V domains shown)
VH: B2 VH
VL: B2 VL with V29L, R30G, G31A, Y33G, S52T
notes: as for B2
B9: 3-83L (antibody, V domains shown)
VH: B2 VH
VL: B2 VL with S28A, V29L, R30G, G31V, Y33G, S52A
notes: as for B2
B10: 5-16H (antibody, V domains shown)
VH: B2 VH with G101A, T102S, T103I
VL: B2 VL with S52A
notes: as for B2
B11: 5-53H (antibody, V domains shown)
VH: B2 VH with K98Q, G101C, T102F, V104Y
VL: B2 VL with S52A
notes: as for B2
B12: 3-37L (antibody, IgG4, V domains shown)
VH: B2 VH
VL: B2 VL with S28A, V29I, Y33K, G51D, S52T
notes: as for B2
B13: 3-85L (antibody, V domains shown)
VH: B2 VH
VL: B2 VL with V29I, R30P, R32P, Y33R, S52A
notes: as for B2
B14: 2-52L (antibody, V domains shown)
VH: B2 VH
VL: B2 VL with G51Q, S52G
notes: as for B2
B15: 2-76L (antibody, IgG4, V domains shown)
VH: B2 VH
VL: B2 VL with S28A, V29I, R30P, G31Y, R32N, Y33Q, S52V
notes: as for B2
B16: 3-20L (antibody, IgG4, V domains shown)
VH: B2 VH
VL: B2 VL with S28A, V29I, R32P, Y33N, G51D, S52T
notes: as for B2

How the values were obtained:
[1] = target: T3, human NGF protein (Sino biological, 11050-HNAC) (human, UniProt P01138 122-241); assay: cell-based or functional assay
[2] = target: T3, human NGF protein (Sino biological, …); assay: cell-based or functional assay; remark: listed apart in the source
[3] = target: T1, human RANKL protein (Sino Biological, …); assay: ELISA on coated antigen (1 ug/mL), anti-human Fc-HRP
Experimental: (§1) The antigen was diluted to 1 μg/mL with a pH 7.4 PBS buffer (BasalMedia, B320) and added to a 96-well microplate (Coming, 9018) at 100 μL/well, and the plate was incubated overnight at 4° C. After the liquid was discarded, a 5% skim milk (BD, 232100) blocking solution diluted with PBS was added at 300 μL/well, and the plate was incubated at 37° C. for 2 h for blocking. After the blocking was complete, the blocking solution was discarded, and the plate was washed 3 times with a PBST buffer (pH 7.4 PBS containing 0.1% tween-20). Then a bispecific antibody diluted with a sample diluent (pH 7.4 containing 1% BSA) to different concentrations was added at 100 μL/well, and the plate was incubated in a 37° C. incubator for 1 h. After the incubation was complete, the plate was washed 3 times with PBST. An HRP-labeled anti-human Fc secondary antibody (Abcam, ab97225) diluted with the sample diluent was added at 100 μL/well, and the plate was incubated at 37° C. for 1 h. After the plate was washed 3 times with PBST, TMB chromogenic substrate (KPL, 5120-0077) was added at 100 μL/well, and the plate was incubated at room temperature for 10 to 15 min. 50 μL of 1 M H₂SO₄ was added to each well to stop the reactions. The absorbance values at 450 nm were taken using a microplate reader, and the EC50 values for binding of the bispecific antibody to the antigens were calculated.

[4] = target: T2, murine RANKL (R&D Systems, 462-TR/CF); assay: as above
Experimental: as §1

[5] = target: T3, human NGF protein (Sino biological, …); assay: as above
Experimental: as §1

[6] = target: T4, murine NGF (Sino Biological, 50385-MNAC) (murine, UniProt P01139 122-241); assay: as above
T4 construct: Bought protein
Experimental: as §1

[7] = target: T3, human NGF protein (Sino biological, …); assay: SPR (Biacore), antibody captured on Protein A chip, antigen in flow, 1:1 fit
Experimental: (§2) Reaction signals were detected in real time by using Biacore, and binding and dissociation curves were obtained. After dissociation was complete in each cycle, the biochip was washed and regenerated with a glycine-hydrochloric acid regeneration solution (GE, BR-1003-54) having a pH of 1.5. Fitting was performed on the experimental data using BIAevaluation version 4.1 software with a 1:1 model, and affinity values were obtained.

[8] = target: T3, human NGF protein (Sino biological, …); assay: blocking ELISA: antibody titrated with fixed biotin-human NGF, on coated human TrkA
Experimental: (§3) The plate was incubated at 37° C. for 1.5 h. After the incubation was complete, the plate was washed 3 times with PBST. Streptavidin-HRP (Invitrogen, 434323, diluted at 1:4000) was added at 100 μL/well, and the plate was incubated at 37° C. for 1 h. The supernatant was removed. After the plate was washed 3 times with PBST, TMB chromogenic substrate (KPL, 5120-0077) was added at 100 μL/well, and the plate was incubated at room temperature for 10 to 15 min. […] The absorbance values at 450 nm were taken using a microplate reader.

[9] = target: T1, human RANKL protein (Sino Biological, …); assay: SPR (Biacore), antibody captured on Protein A chip, RANKL in flow, 1:1 fit
Experimental: as §2

[10] = target: T1, human RANKL protein (Sino Biological, …); assay: blocking ELISA: antibody titrated with fixed biotin-human RANKL, on coated human RANK
Experimental: as §3, with “After” for “The plate was incubated at 37° C. for 1.5 h. After”

T3 sequence (P01138 122-241 limits assumed): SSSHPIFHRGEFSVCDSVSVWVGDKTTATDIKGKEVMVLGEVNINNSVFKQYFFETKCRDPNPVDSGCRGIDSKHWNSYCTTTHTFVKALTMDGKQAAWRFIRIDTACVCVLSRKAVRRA
T4 sequence (P01139 122-241 limits assumed): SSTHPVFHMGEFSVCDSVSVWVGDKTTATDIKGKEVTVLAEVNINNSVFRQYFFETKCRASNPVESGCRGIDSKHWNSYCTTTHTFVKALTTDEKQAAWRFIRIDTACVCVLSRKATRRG

Row | Binder | Kd [9] | Ratio of affinities (fold increase in affinity relative to denosumab) [9] | koff [9] | kon [9] | also measured
1 | B1 | – | – | – | – | TF-1 cell proliferation-inhibiting activity, fold relative to bispecific antibody 1 [1]: ~4.2 times; TF-1 cell proliferation-inhibiting activity (TF-1 cells + human NGF, Cell-titer Glo) IC50 [2]: 0.759 nM; binding result [3]: no binding; binding result [4]: no binding; EC50 [5]: 2.27 nM; EC50 [6]: 1.15 nM; Kd [7]: 0.142 nM; koff [7]: 0.000184 s⁻¹; kon [7]: 1.29e+06 M⁻¹ s⁻¹; IC50 [8]: 3.66 nM
2 | B2 | 16.3 nM | 0.57 fold | 0.000232 s⁻¹ | 14200 M⁻¹ s⁻¹ | –
3 | B3 | 41 nM | 0.23 fold | 0.000501 s⁻¹ | 12200 M⁻¹ s⁻¹ | IC50 [10]: 0.999 nM
4 | B4 | 25.6 nM | 0.36 fold | 0.000273 s⁻¹ | 10700 M⁻¹ s⁻¹ | –
5 | B5 | 9.81 nM | 0.94 fold | 0.000253 s⁻¹ | 25800 M⁻¹ s⁻¹ | –
6 | B6 | 23.6 nM | 0.39 fold | 0.00069 s⁻¹ | 29200 M⁻¹ s⁻¹ | –
7 | B7 | 17.1 nM | 0.54 fold | 0.000253 s⁻¹ | 14800 M⁻¹ s⁻¹ | –
8 | B8 | 19 nM | 0.49 fold | 0.000308 s⁻¹ | 16200 M⁻¹ s⁻¹ | –
9 | B9 | 20.7 nM | 0.45 fold | 0.000322 s⁻¹ | 15600 M⁻¹ s⁻¹ | –
10 | B10 | 8.91 nM | 1.04 fold | 0.00026 s⁻¹ | 29200 M⁻¹ s⁻¹ | –
11 | B11 | 34 nM | 0.27 fold | 0.000583 s⁻¹ | 17200 M⁻¹ s⁻¹ | IC50 [10]: 1.37 nM
12 | B12 | 19.7 nM | 0.47 fold | 0.000305 s⁻¹ | 15500 M⁻¹ s⁻¹ | –
13 | B13 | 22.3 nM | 0.41 fold | 0.000335 s⁻¹ | 15000 M⁻¹ s⁻¹ | –
14 | B14 | 14.2 nM | 0.65 fold | 0.000222 s⁻¹ | 15700 M⁻¹ s⁻¹ | –
15 | B15 | 20.3 nM | 0.46 fold | 0.000341 s⁻¹ | 16800 M⁻¹ s⁻¹ | –
16 | B16 | 13.5 nM | 0.68 fold | 0.000272 s⁻¹ | 20100 M⁻¹ s⁻¹ | –

Reference: US20240254245A1 (JIANGSU HENGRUI PHARMACEUTICALS, published 2024)
